B1: Azoarcus group I ribozyme (parent)
chain: GUGCCUUGCGCCGGGAAACCACGCAAGGGAUGGUGUCAAAUUCGGCGAAACCUAAGCGCCCGCCCGGGCGUAUGGCAACGCCGAGCCAAGCUUCGGCGCCUGCGCCGAUGAAGGUGUAGAGACUAGACGGCACCCACCUAAGGCAAACGCUAUGGUGAAGGCAUAGUCCAGGGAGUGGCGAAAGUCACACAAACCGG

Variants of: B1
Assay: reverse-splicing fitness (ratio to wild type); higher = more active; in vitro selection; Mg2+ level not given
In short: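 An in vitro group I ribozyme library with randomized positions was T7-transcribed and gel-purified. In triplicate, 10 pmol RNA in EPPS pH 7.5 was reacted with 50 pmoles of a 30-nt RNA substrate for 1 h at 37 °C across several added MgCl2 levels (1–48 mM), then stopped with EDTA. Products were reverse transcribed from a substrate-complementary primer, PCR-amplified and sequenced (HiSeq 4000). Fitness is a variant's read proportion after selection over that before, normalised to wild type.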

| Variant | reverse-splicing fitness |
| --- | --- |
| A111U A120C A145U C150U C169U U176C | 0.0381 |
| A111U A120C A145U C150U C169U U176A | 0.0306 |
| A111U A120C A145U C150U C169U U176G | 0.0049 |
| A111U A120C C150A C169U | 0.0239 |
| A111U A120C C150A C169G | 0.00847 |
| A111U A120C C150A C169A | 0.0105 |
| A111U A120C A145G C150G C169U U176C | 0.0127 |
| A111U A120C A145G C150G C169U U176A | 0.0118 |
| A111U A120C A145G C150G C169U U176G | 0.00652 |
| A111U A120C A145C C169G U176C | 0.0106 |
| A111U A120C A145C C169G U176G | 0.00463 |
| A111U A120G A145G C169G U176A | 0.0455 |
| A111U A120G A145G C169G U176G | 0.00492 |
| A111U A120G A145G C169G U176C | 0.0601 |
| A111U A120G A145U C150A | 0.0183 |
| A111U A120C A145G C150U C169G | 0.00992 |
| A111U A120C A145G C150U C169U | 0.148 |
| A111U A120C A145G C150U C169A | 0.0113 |
| A111U A120C A145U C150A C169A U176C | 0.00867 |
| A111U A120C A145U C150A C169A U176G | 0.00488 |
| A111U A120C A145U C150A C169A U176A | 0.0108 |

| Variant | reverse-splicing fitness |
| --- | --- |
| A111U A120G A145C C150U C169A U176G | 0.00531 |
| A111U A120G A145C C150U C169A U176A | 0.012 |
| A111U A120G A145C C150U C169A U176C | 0.00998 |
| A111U A120G A145C C150A C169U | 0.0118 |
| A111U A120G A145C C150A C169A | 0.00967 |
| A111U A120G A145C C150A C169G | 0.0146 |
| A111U A120C A145U C150U U176G | 0.0333 |
| A111U A120C A145U C150U U176A | 0.194 |
| A111U A120C A145U C150U U176C | 0.248 |
| A111U A120G A145G | 0.175 |
| A111U A120G A145C | 0.159 |
| A111U A120G A145U | 0.172 |
| A111U A120C A145G C169A | 0.0121 |
| A111U A120C A145G C169U | 0.172 |
| A111U A120C A145G C169G | 0.0095 |
| A111U A120C A145G C150A U176A | 0.0518 |
| A111U A120C A145G C150A U176C | 0.0785 |
| A111U A120C A145G C150A U176G | 0.013 |
| A111U A120G A145G C150G C169G U176C | 0.0108 |
| A111U A120G A145G C150G C169G U176A | 0.00971 |
| A111U A120G A145G C150G C169G U176G | 0.00518 |

| Variant | reverse-splicing fitness |
| --- | --- |
| A111U A120C C150U C169G U176C | 0.0132 |
| A111U A120C C150U C169G U176G | 0.00495 |
| A111U A120C C150U C169G U176A | 0.0138 |
| A111U A120C A145G C150U C169U U176C | 0.0389 |
| A111U A120C A145G C150U C169U U176G | 0.0053 |
| A111U A120C A145G C150U C169U U176A | 0.0282 |
| A111U A120G A145C C150U C169G U176A | 0.0293 |
| A111U A120G A145C C150U C169G U176C | 0.0226 |
| A111U A120G A145C C150U C169G U176G | 0.00545 |
| A111U A120C A145U C150U C169A U176C | 0.00725 |
| A111U A120C A145U C150U C169A U176G | 0.0056 |
| A111U A120C A145U C150U C169A U176A | 0.0134 |
| A111U A120C C150U U176G | 0.0321 |
| A111U A120C C150U U176A | 0.154 |
| A111U A120C C150U U176C | 0.204 |
| A111U A120C A145C C169U | 0.164 |
| A111U A120C C150A C169G U176A | 0.0168 |
| A111U A120C C150A C169G U176G | 0.00525 |
| A111U A120C C150A C169G U176C | 0.0197 |
| A111U A120C A145U U176A | 0.259 |
| A111U A120C A145U U176G | 0.0572 |

| Variant | reverse-splicing fitness |
| --- | --- |
| A111U A120C A145U U176C | 0.3 |
| A111U A120C C169A U176G | 0.00415 |
| A111U A120C C169A U176A | 0.0174 |
| A111U A120C C169A U176C | 0.017 |
| A111U A120G A145C C150G C169G | 0.0237 |
| A111U A120G A145C C150G C169U | 0.0237 |
| A111U A120G A145C C150G C169A | 0.0154 |
| A111U A120G A145C C150U U176G | 0.00458 |
| A111U A120G A145C C150U U176C | 0.0201 |
| A111U A120G A145C C150U U176A | 0.0191 |
| A111U A120C C169G | 0.0098 |
| A111U A120C C169A | 0.0124 |
| A111U A120C C169U | 0.174 |
| A111U A120C A145G C150A C169A | 0.0121 |
| A111U A120C A145G C150A C169U | 0.034 |
| A111U A120C A145G C150A C169G | 0.00836 |
| A111U A120C A145G C150G | 0.0716 |
| A111U A120C A145G C150U | 0.495 |
| A111U A120C A145G C150A | 0.0986 |
| A111U A120C A145G C150U C169G U176A | 0.0125 |

Source: the RNAGym collection of RNA variant scans (doi:10.1093/molbev/msab373)
